Assay results taken from US20250314655A1 (AUTOLUS, published 2025).
No end group written: not given here.

T1: TRBC1 peptide (biotinylated) (human, also: biotinylated (site not given here))
T1 construct: In the monoclonal screen: biotinylated, 0.5 ug/ml on neutravidin-coated plates; In the polyclonal phage ELISA also presented as BSA or OA conjugate of the C-terminal-cysteine form; also called Bio-TRBC1; biotinylated TRBC1
T1 peptide: VLEDLNKVFPPEVAV

T2: TRBC2 peptide (biotinylated) (human, also: biotinylated (site not given here))
T2 construct: In the monoclonal screen: biotinylated, 0.5 ug/ml on neutravidin-coated plates; In the polyclonal phage ELISA also presented as BSA or OA conjugate of the C-terminal-cysteine form; also called Bio-TRBC2; biotinylated TRBC2
T2 peptide: VLEDLKNVFPPEVAV


Target: T1, TRBC1 peptide (biotinylated)
Assay: TRF assay, scFv on biotin-peptide/neutravidin plate
Method: (§1) The scFv populations from round-2 and round-3 selection outputs were sub-cloned into the pSANG10-3F expression vector and transformed into E. coli BL21 (DE3) cells. 1128 individual transformants (564 clones/TRBC peptide) were picked into 12×96 well culture plates (94 clones/plate) and antibody expression was induced using autoinduction media. Recombinant monoclonal antibodies secreted into culture supernatant after overnight induction were tested for binding to biotinylated TRBC1 and TRBC2 immobilised on neutravidin coated Nunc Maxisorp™ 96 well plates.

| Binder | TRBC1 binding |
| --- | --- |
| CP_01_F06 (scFv, not shown: small tags and cut ends, scFv from pSANG10-3F (His6, tri-FLAG), culture supernatant) scFv: EVQLLESGGGVVQPGRSLRLSCAASGFTFSSYGMHWVRQAPGKGLEWVAVISYDGSNKYYADSVKGRFTISRDNSKNTLYLQMNSLRAEDTAVYYCAKDDGAMRYWGQGTMVTVSSGGGGSGGGGSGGGASDIQMTQSPDSLAVSLGERATINCKSSQSVLYSSNNKNYLAWYQQKPGQPPKLLIYWASTRESGVPDRFSGSGSGTDFTLTISSLQAEDVAVYYCQQYYDSPYTFGQGTKVDIKRTAAA | 325000 TRF units |
| CP_01_D10 (scFv, not shown: small tags and cut ends, scFv from pSANG10-3F (His6, tri-FLAG), culture supernatant) scFv: QVQLVESGGGLVQPGRSLRLSCAASGFTFSSYAMHWVRQAPGKGLEWVAVISYDGSSKYYADSVKGRFTISRDNSKNTLYLQMNSLRAEDTAVYYCAKGGGSFGAFDIWGQGTLVTVSSGGGGSGGGGSGGGASDIQMTQSPSSLSASVGDRVTITCRASQSISRYLNWYQQKPGKAPNLLIYAASSLQSGVPSRFSGSGSGTDFTLTISSLQPEDFATYYCQQYNSYPLTFGGGTKLEIKRTAAA | 371000 TRF units |
| CP_01_C08 (scFv, not shown: small tags and cut ends, scFv from pSANG10-3F (His6, tri-FLAG), culture supernatant) scFv: EVQLLESGGGAVQPGRSLRLSCAASGFTFSSYAMHWVRQAPGKGLEWVAVISYDGSNKYYADSVKGRFTISRDNSKNTLYLQMNSLRAEDTAVYYCASGYSSSWYLDYWGQGTLVTVSSGGGGSGGGGSGGGASDIQMTQSPSSVSASVGDRVTITCQASQDISNYLNWYQQKPGKAPKLLIYDASNLETGVPSRFSGSGSGTDFTFTISSLQPEDIATYYCQQYDNLPLTFGGGTKVEIKRTAAA | 353000 TRF units |
| CP_01_E07 (scFv, not shown: small tags and cut ends, scFv from pSANG10-3F (His6, tri-FLAG), culture supernatant) scFv: QVQLVESGGGVVQPGRSLRLSCAASGFTFSSYGMHWVRQAPGKGLEWVAVISYDGSNKYYADSVKGRFTISRDNSKNTLYLQMNSLRAEDTAVYYCAKDLGGSGGAFDIWGQGTLVTVSSGGGGSGGGGSGGGASDIVMTQTPHSLSVTPGQPASISCKSSQSLLYSDGKTYLYWYLQKPGQPPQLLIYEVSNRFSGVPDRFSGSGSGTDFTLKISRVEAEDVGVYYCMQSIQLYTFGQGTKVDIKRTAAA | 332000 TRF units |
| CP_01_D12 (scFv, not shown: small tags and cut ends, scFv from pSANG10-3F (His6, tri-FLAG), culture supernatant) scFv: EVQLLESGGGVVQPGRSLRLSCAASGFTFSSYAMHWVRQAPGKGLEWVAVISYDGSNKYYADSVKGRFTISRDNSKNTLYLQMNSLRAEDTAVYYCAKGGDTYGFLDNWGQGTMVTVSSGGGGSGGGGSGGGASDIQMTQSPSTLSASVGDRVTITCRASQSISSWLAWYQQKPGKAPKLLIYKASSLESGVPSRFSGSGSGTDFTLTISSLQPEDFATYYCQQFNAYPLTFGGGTKVEIKRTAAA | 393000 TRF units |
| CP_01_E09 (scFv, not shown: small tags and cut ends, scFv from pSANG10-3F (His6, tri-FLAG), culture supernatant) scFv: QVQLVESGGGVVQPGRSLRLSCAASGFTFSSYAMHWVRQAPGKGLEWVAVISYDGSNKYYADSVKGRFTISRDNSKNTLYLQMNSLRAEDTAVYYCARAHNSSSWSFDYWGQGTLVTVSSGGGGSGGGGSGGGASDIQMTQSPSSLSASVGDRVTITCRASQSISSYLNWYQQKPGKAPKLLIYDASNLETGVPSRFSGSGSGTDFTFTISSLQPEDIATYYCQQYDNLPLTFGGGTKVDIKRTAAA | 403000 TRF units |
| CP_01_D03 (scFv, not shown: small tags and cut ends, scFv from pSANG10-3F (His6, tri-FLAG), culture supernatant) scFv: QVQLVESGGGVVQPGRSLRLSCAAPGFTFSSYGMHWVRQAPGKGLEWVAVISYDGSNKYYADSVKGRFTISRDNSKNTLYLQMNSLRAEDTAVYYCARNKQYGMDVWGQGTLVTVSSGGGGSGGGGSGGGASDIVMTQSPATLSLAPGERATLSCRASQSVGSNLAWYQQKPGQAPSLLIYDASTRATGIPARFSGSGSGTDFTLTISSLQSEDIAVYYCQQYHRWPLTFGGGTKVEIKRTAAA | 328000 TRF units |
| CP_01_C11 (scFv, not shown: small tags and cut ends, scFv from pSANG10-3F (His6, tri-FLAG), culture supernatant) scFv: QVQLVESGAEVKKPGASVKVSCKASGYTFTGYYMHWVRQAPGQGLEWMGRINPNSGGTNYAQKFQGRVTMTRDTSISTAYMELSRLRSDDTAVYYCASGGAGWNWGQGTMVTVSSGGGGSGGGGSGGGASNFMLTQPHSVSESPGKTATISCTRSSGSIASNYVQWYQQRPGSAPTTVIYEDNQRPFGVPDRFSGSIDSSSNSASLTISGLKTEDEADYYCQSHDSSNVVFGGGTQLTVLGQPAA | 349000 TRF units |
| CP_01_F02 (scFv, not shown: small tags and cut ends, scFv from pSANG10-3F (His6, tri-FLAG), culture supernatant) scFv: QVQLVESGGGVVQPGRPLRLSCAASGFTFSSYAMHWVRQAPGKGLEWVAVISYDGSNKYYADSVKGRFTISRDNSKNTLYLQMNSLRAEDTAVYYCARAGYSYADYWGQGTMVTVSSGGGGSGGGGSGGGASDIQMTQSPSSLSASVGDRVTITCRASQGIRNDLGWYQQKPGKAPKRLIYAASSLQSGVPSRFSGSGSGTEFTLTISSLQPEDFATYYCLQHNSYPLTFGGGTKVDIKRTAAA | 302000 TRF units |

Target: T2, TRBC2 peptide (biotinylated)
Assay: as above
Method: as §1

| Binder | TRBC2 binding |
| --- | --- |
| CP_03_D04 (scFv, not shown: small tags and cut ends, scFv from pSANG10-3F (His6, tri-FLAG), culture supernatant) scFv: EVQLVESGGGVVQPGRSLRLSCAASGFTFSSYAMHWVRQAPGKGLEWVAVISYDGSNKYYADSVKGRFTISRDNSKNTLYLQMNSLRAEDTAVYYCARGGFTVPGGAFDIWGQGTLVTVSSGGGGSGGGGSGGGASNFMLTQPHSVSDSPGKTVTISCTRSSGRIGSNFVQWYQQRPGSSPTTVIYEDDQRPSGVPARFSGSIDSSSNSASLTISGLTTADEAGYYCQSYDASNVIFGGGTKLTVLGQPAA | 143000 TRF units |
| CP_03_H06 (scFv, not shown: small tags and cut ends, scFv from pSANG10-3F (His6, tri-FLAG), culture supernatant) scFv: QVQLVESGGGLVKPGGSLRLSCAASGFTFSDYYMSWIRQAPGKGLEWVSYISSSGSTIYYADSVEGRFTISRDNAKNSLYLQMNSLRTEDTAVYYCARARVGGMDVWGQGTMVTVSSGGGGSGGGGSGGGASNFMLTQPHSVSESPGKTVTISCTRSSGSIASNYVQWYQQRPGSSPTTVIYEDNQRPSGVPDRFSGSIDSSSNSASLTISGLKTEDEADYYCQSFDADNLHVVFGGGTKLTVLGQPAA | 168000 TRF units |
| CP_03_D09 (scFv, not shown: small tags and cut ends, scFv from pSANG10-3F (His6, tri-FLAG), culture supernatant) scFv: EVQLVQSGAEVKKPGSSVKVSCEASGYTFTSYAISWVRQAPGQGLEWMGWMNPNSGNTGYAQKFQGRVTMTRNTSISTAYMELSSLRSEDTAVYYCARVSSYYGMDVWGQGTLVTVSSGGGGSGGGGSGGGASNFMLTQPLSVSESPGKTVTISCTRSSGSIASNYVQWYQQRPGSAPTTVIYEDNQRPSGVPDRFSGSIDSSSNSASLTISGLKTEDEADYYCQSYNSSNHWVFGGGTKVTVLGQPAA | 129000 TRF units |
| CP_03_F09 (scFv, not shown: small tags and cut ends, scFv from pSANG10-3F (His6, tri-FLAG), culture supernatant) scFv: QMQLVQSGAEVKKPGASVKVSCKASGYTFASYYMHWVRQAPGQGLEWMGIINPSGGSTSYAQKFQGRVTMTRDTSTSTVYMELSRLRSDDTAVYYCASNRGGSYKSVGMDVWGQGTTVTVSSGGGGSGGGGSGGGASNFMLTQPQSVSESPGKTVTISCTRSSGNFASKYVQWYQQRPGSSPTTVIYENYQRPSGVPDRFSGSIDSSSNSATLTISGLKTEDEADYYCQSYDEVSVVFGGGTQLTVLGQPAA | 132000 TRF units |
| CP_03_G02 (scFv, not shown: small tags and cut ends, scFv from pSANG10-3F (His6, tri-FLAG), culture supernatant) scFv: EVQLVQSGAEVKKPGSSVKVSCKASGGTFSSYAISWVRQAPGQGLEWMGIINPSGGSTSYAQKFQGRVTMTRDTSTSIVYMELSSLRSEDTAVYYCARGVWNSGSYLGFDYWGQGTLVTVSSGGGGSGGGGSGGGASDIQMTQSPSSLSASVGDRVTITCQASQDISNYLNWYQQKPGKAPKLLIYAASSLQSGVPSRFSGSGSGTDFTLTISSLQPEDFATYYCQQSYSTPLTFGGGTKLEIKRTAAA | 152000 TRF units |
| CP_03_G09 (scFv, not shown: small tags and cut ends, scFv from pSANG10-3F (His6, tri-FLAG), culture supernatant) scFv: QVQLQQSGPGLVKPSQTLSLTCAISGDSVSSNSAAWNWIRQSPSRGLEWLGRTYYRSKWYNDYAVSVKSRITINPDTSKNQFSLQLNSVTPEDTAVYYCARDQWLANYYYYGMDVWGQGTLVTVSSGGGGSGGGGSGGGASSYELTQPLSVSVALGQTARITCGGNNIGSKNVHWYQQKPGQAPVLVIYRDNNRPSGIPERFSGSNSGNTATLTISKAQAGDEADYYCQVWDSNSWVFGGGTKLTVLGQPAA | 139000 TRF units |
| CP_03_C12 (scFv, not shown: small tags and cut ends, scFv from pSANG10-3F (His6, tri-FLAG), culture supernatant) scFv: EVQLVQSGAEVKKPGASVKVSCKASGYTFTGYYMHWVRQAPGQGLEWMGWINPNSGGTNYAQKFQGRVTMTRDTSISTAYMELSSLRSEDTAVYYCARDTGPIDYWGQGTMVTVSSGGGGSGGGGSGGGASDIVMTQTPLSLSVTPGQPASISCKSSQSLLHSDGKTYLYWYLQKPGQPPQLLVYEVSNRFSGVPDKFSGSGSGTDFTLKISRVEAEDVGVYYCMQGIQLPPTFGGGTKVDIKRTAAA | 167000 TRF units |
| CP_03_E05 (scFv, not shown: small tags and cut ends, scFv from pSANG10-3F (His6, tri-FLAG), culture supernatant) scFv: EVQLVESGGGVVQPGGSLRLSCAASGFTFSSYAMSWVRQAPGKGLEWVSAISGSGGSTYYADSVKGRFSISRDNSKNTLYLQMNSLRAEDTAVYYCARTRSSGAFDIWGQGTLVTVSSGGGGSGGGGSGGGASNFMLTQPHSVSESPGKTVTISCTRSSGSIASKYVQWYQQRPGSSPTTVIYEDNQRPSGVPDRFSGSIDTSSNSASLTISGLRTEDEADYYCHSYDSNNHSVFGGGTKVTVLGQPAA | 217000 TRF units |
| CP_03_F10 (scFv, not shown: small tags and cut ends, scFv from pSANG10-3F (His6, tri-FLAG), culture supernatant) scFv: EVQLVESGAEVKKPGASVKVSCKASGYTFTGYYMHWVRQAPGQGLEWMGRINPNSGGTNYAQKFQGRVTMTRDTSISTAYMELSSLRSEDTAVYYCARFGERYAFDIWGQGTLVTVSSGGGGSGGGGSGGGASQSELTQPPSASGSPGQSVTISCTGTSTDVGAFHFVSWYQHTPGKAPKLLISEVRKRASGVPDRFSGSRSGNTASLTVSGLQSEDEADYFCSAYTGSNYVFGSGTKLTVLGQPAA | 140000 TRF units |
| CP_03_D05 (scFv, not shown: small tags and cut ends, scFv from pSANG10-3F (His6, tri-FLAG), culture supernatant) scFv: QVQLVESGAEVKKPGASVKVSCKASGYTFTGYYMHWVRQAPGQGLEWMGRINPNSGGTNYAQKFQGRVTMTRDTSISTAYMELSRLRSDDTAVYYCASPRGRGSAFDIWGQGTLVTVSSGGGGSGGGGSGGGASSYELTQPPSVSVSPGQTATISCSGDQLGGKYGHWYQKKPGQSPVLVLYQDRKRPAGIPERFSGSSSGNTITLTISGTQAVDEADYYCQAWDTNLGGVFGGGTKVTVLGQPAA | 213000 TRF units |
